# Like-named read-outs stand apart in the source and are kept apart here.
# Legend:
# [1] = test system: T1, RcopLS20-His(6) (Bacillus subtilis plasmid pLS20 (pLS20cat)), ORF:72252162; test: analytical ultracentrifugation
# T1 sequence: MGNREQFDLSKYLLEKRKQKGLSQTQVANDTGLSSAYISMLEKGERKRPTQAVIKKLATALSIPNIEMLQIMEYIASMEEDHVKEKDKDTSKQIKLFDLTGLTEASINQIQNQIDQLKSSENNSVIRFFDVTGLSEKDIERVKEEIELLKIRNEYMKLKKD
# [2] = test system: T1, RcopLS20-His(6) (Bacillus subtilis plasmid pLS20 (pLS20cat)), ORF:72252162; test: EMSA
# [3] = test system: T2, RappLS20-His(6) (Bacillus subtilis plasmid pLS20 (pLS20cat)), ORF:c1c32938; test: EMSA
# T2 sequence: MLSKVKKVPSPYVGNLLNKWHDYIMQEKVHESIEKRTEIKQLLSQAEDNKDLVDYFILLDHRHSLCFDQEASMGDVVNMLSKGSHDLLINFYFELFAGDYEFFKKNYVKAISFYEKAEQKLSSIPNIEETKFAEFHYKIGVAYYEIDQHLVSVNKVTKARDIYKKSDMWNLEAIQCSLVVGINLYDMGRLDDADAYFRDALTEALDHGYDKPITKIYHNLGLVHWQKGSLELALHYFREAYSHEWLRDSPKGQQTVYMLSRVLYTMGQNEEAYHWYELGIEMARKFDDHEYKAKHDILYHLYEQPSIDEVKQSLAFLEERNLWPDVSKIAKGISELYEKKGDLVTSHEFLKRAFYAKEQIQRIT
# [4] = biological target: Rap_(pLS20)-His(6) (Bacillus subtilis plasmid pLS20); test: AUC
# [5] = biological target: Rap_(pLS20)-His(6) (Bacillus subtilis plasmid pLS20); test: AUC; remark: listed apart in the source
# [6] = biological target: Rap_(pLS20)-His(6) (Bacillus subtilis plasmid pLS20); test: AUC; remark: listed apart in the source
# [7] = biological target: Rco_(pLS20)-His(6) (Bacillus subtilis plasmid pLS20); test: AUC
molecule,measurement,setting,value
"CGCGGATCCTATACCACCTCGCAAAATAAACCCTGTATACGGTCTAGCGCTTACAATTTTTCGCGTTTTTTTTACTCAGTGAAAAAAACCGGTTAAAAATTTCACTGAAATACTTTACAGTTAAAAAAATGTCTGTTATCTTAGTGAAAGAGTCAGTGAAAAAAATGCAGAATAAGGTTTTTTGTTGTTAATCTCAAACAATTTCTGTGTAAAAAGAAC (double strand) [Fragment FIII (219 bp, operator OII)]",binding,[1],binds
same,binding,[2],binds
same,binding,[3],no binding
Phr*_(pLS20) (peptide),Kd,[4],2.1 µM
PhrF*-I5Y (peptide),Kd,[4],4.2 µM
PhrF*-R2K (peptide),Kd,[4],4.2 µM
Rap_(pLS20)-His(6) (natural protein),stoichiometry N,[5],4
same,stoichiometry N,[6],2
same,stoichiometry N,[4],4
Rco_(pLS20)-His(6) (natural protein),stoichiometry N,[7],4
same,stoichiometry N,[4]; scale: mol of Rco_(pLS20) per mol of Rap_(pLS20),2.1
QRGMI [PhrF*],Kd,[4],5.3 µM

# Source: paper PMC7641744
